# Patent US20040224408A1, “THAP proteins as nuclear receptors for chemokines and roles in transcriptional regulation, cell proliferation and cell differentiation” (published 2004)
# T1: THAP1 THAP domain (Homo sapiens, UniProt Q9NVV9 SEQ:1-90)
# T1 sequence: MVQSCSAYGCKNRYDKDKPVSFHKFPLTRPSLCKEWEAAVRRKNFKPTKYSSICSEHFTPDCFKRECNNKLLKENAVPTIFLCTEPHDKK
# Target: T1, THAP1 THAP domain
# Test: EMSA; also no competition at 50-250x molar excess
# Conditions: tags: C-terminal His6 (pET-21c); label: 32P
# Experimental: To confirm that the THAP domain is a novel sequence specific DNA-binding domain, electrophoretic mobility shift assays (EMSA) were carried out using wild-type or mutant THAP domain responsive elements (THRE) determined by SELEX (see Example 28 and FIGS. 18 and 24). Double-stranded probes used in EMSA experiments were purified on 12% polyacrylamide gels, ³²P end labeled with T4 polynucleotide kinase and quantified by Cerenkov counting. About 20 ng of purified THAP domain from human THAP1 (prepared as described in Example 28) was incubated with 30000 cpm of the appropriate probe (about 2 ng). Binding reactions were carried out for 10 minutes at room temperature in 20 μl binding buffer (20 mM Tris-HCl pH 7.5, 100 mM KCl, 0.1% NP-40, 100 μg/ml BSA, 2.5 mM DTT, 5% glycerol, 200 ng poly (dI-dC)). Electrophoresis was performed on 8% (29:1) polyacrylamide gels containing 5% glycerol. Gels were run in 0.25×TBE at 150V and 4° C., dried and exposed on a phosphoimager screen (Molecular Dynamics). […]
binder,measurement,value
3mut1 (dsDNA) DNA 1: AGCAAGTAATTTCAAACTACTTCAT DNA 2: ATGAAGTAGTTTGAAATTACTTGCT,binding result,no binding
